Experimental data reported in US20210300999A1.

Biological target: SARS-CoV-2 S receptor-binding domain (SRBD), residues 319-541 (SARS-CoV-2) (UniProt P0DTC2)
Assay: ELISA on coated antigen

Q: For “rCR3022 (recombinant form of the cross-reactive SARS-CoV SRBD mAb CR3022) (antibody)”, which EC50 is on record?
A: The EC50 was 1.1 ng/mL.
